The values that follow are results of earlier work, collected in patent US10888616B2 (Latitude Pharmaceuticals, Inc., priority 2015, dated 2021).

For data set [1] the following is noted: acidic solution (pH 2-4), within 24 hours at 37° C.

As for “Glucagon: single-chain polypeptide of 29 amino acid residues, sequence in FIG. 1 (SEQ ID NO: 1)”, the “solubility in pure water or alcohol” value is “insoluble”. The gelling in water entry (pH 3 or lower) is reported as “will aggregate to form a gel within hours”. Also, for the setting “physiological pH (pH 4-8)”, the solubility in water entry was “insoluble”. Besides, the “glucagon broken down into degradation products” value in data set [1] is 5-70%.
